Values belong to the binder of their own block, whether it stands above or below them.
Tests used:
P8SH = target: T1, P8SH; assay: two-hybrid library CCNG1;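 also: natural log of median RNA to DNA barcode read ratio; higher means stronger binding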
T1 chain: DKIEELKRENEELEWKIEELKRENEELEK

P5SH = target: T2, P5SH; assay: two-hybrid library CCNG1;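 also: natural log of median RNA to DNA barcode read ratio; higher means stronger binding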
T2 chain: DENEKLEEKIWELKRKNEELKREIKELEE

P6SH [1] = target: T3, P6SH; assay: two-hybrid library CCNG1;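 also: natural log of median RNA to DNA barcode read ratio; higher means stronger binding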
T3 chain: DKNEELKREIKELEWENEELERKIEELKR

P7SH = target: T4, P7SH; assay: two-hybrid library CCNG1;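 also: natural log of median RNA to DNA barcode read ratio; higher means stronger binding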
T4 chain: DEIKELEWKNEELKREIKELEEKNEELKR

P6SH [2] = target: T3, P6SH; assay: two-hybrid library CCmax; details: mean of both orientations;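 also: natural log of median RNA to DNA barcode read ratio; higher means stronger binding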
Core_NNNN-es_KKKK = target: T5, Core_NNNN-es_KKKK; assay: two-hybrid library CCmax; details: mean of both orientations;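 also: natural log of median RNA to DNA barcode read ratio; higher means stronger binding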
T5 chain: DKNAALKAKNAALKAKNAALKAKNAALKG

4H584-bA = target: T6, 4H584-bA; assay: two-hybrid library CCNG1
T6 chain: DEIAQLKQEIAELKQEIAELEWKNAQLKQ

4H1338-bA = target: T7, 4H1338-bA; assay: two-hybrid library CCNG1
T7 chain: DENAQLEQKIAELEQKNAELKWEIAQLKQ

4H1710-bA = target: T8, 4H1710-bA; assay: two-hybrid library CCNG1
T8 chain: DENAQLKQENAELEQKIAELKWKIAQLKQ

4H1804-bA = target: T9, 4H1804-bA; assay: two-hybrid library CCNG1
T9 chain: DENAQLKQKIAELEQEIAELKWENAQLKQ

4H3638-bA = target: T10, 4H3638-bA; assay: two-hybrid library CCNG1
T10 chain: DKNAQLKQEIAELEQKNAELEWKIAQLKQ

4H3172-bA = target: T11, 4H3172-bA; assay: two-hybrid library CCNG1
T11 chain: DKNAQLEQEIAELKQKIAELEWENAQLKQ

4H619-bA = target: T12, 4H619-bA; assay: two-hybrid library CCNG1
T12 chain: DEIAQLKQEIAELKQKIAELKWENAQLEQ

4H1359-bA = target: T13, 4H1359-bA; assay: two-hybrid library CCNG1
T13 chain: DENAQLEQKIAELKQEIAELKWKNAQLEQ

4H3817-bA = target: T14, 4H3817-bA; assay: two-hybrid library CCNG1
T14 chain: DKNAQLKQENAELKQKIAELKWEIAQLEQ

4H1899-bA = target: T15, 4H1899-bA; assay: two-hybrid library CCNG1
T15 chain: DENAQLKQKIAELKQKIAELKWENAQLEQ

4H1985-bA = target: T16, 4H1985-bA; assay: two-hybrid library CCNG1
T16 chain: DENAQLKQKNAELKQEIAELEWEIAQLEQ

4H906-bA = target: T17, 4H906-bA; assay: two-hybrid library CCNG1
T17 chain: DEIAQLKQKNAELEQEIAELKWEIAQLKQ

4H3129-bA = target: T18, 4H3129-bA; assay: two-hybrid library CCNG1
T18 chain: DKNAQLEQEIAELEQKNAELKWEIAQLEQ

4H3628-bA = target: T19, 4H3628-bA; assay: two-hybrid library CCNG1
T19 chain: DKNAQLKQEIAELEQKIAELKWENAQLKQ

4H570-bA = target: T20, 4H570-bA; assay: two-hybrid library CCNG1
T20 chain: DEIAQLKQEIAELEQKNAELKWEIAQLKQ

4H1629-bA = target: T21, 4H1629-bA; assay: two-hybrid library CCNG1
T21 chain: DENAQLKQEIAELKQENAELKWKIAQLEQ

4H1449-bA = target: T22, 4H1449-bA; assay: two-hybrid library CCNG1
T22 chain: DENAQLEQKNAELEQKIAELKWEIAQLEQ

4H1373-bA = target: T23, 4H1373-bA; assay: two-hybrid library CCNG1
T23 chain: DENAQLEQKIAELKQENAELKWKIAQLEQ

4H1544-bA = target: T24, 4H1544-bA; assay: two-hybrid library CCNG1
T24 chain: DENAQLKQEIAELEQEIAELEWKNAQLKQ

4H1222-bA = target: T25, 4H1222-bA; assay: two-hybrid library CCNG1
T25 chain: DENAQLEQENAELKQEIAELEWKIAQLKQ

4H3858-bA = target: T26, 4H3858-bA; assay: two-hybrid library CCNG1
T26 chain: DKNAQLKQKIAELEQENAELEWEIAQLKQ

4H3974-bA = target: T27, 4H3974-bA; assay: two-hybrid library CCNG1
T27 chain: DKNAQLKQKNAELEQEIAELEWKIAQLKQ

4H1393-bA = target: T28, 4H1393-bA; assay: two-hybrid library CCNG1
T28 chain: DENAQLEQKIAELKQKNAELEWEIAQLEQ

4H3613-bA = target: T29, 4H3613-bA; assay: two-hybrid library CCNG1
T29 chain: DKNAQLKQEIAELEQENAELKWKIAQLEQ

4H1348-bA = target: T30, 4H1348-bA; assay: two-hybrid library CCNG1
T30 chain: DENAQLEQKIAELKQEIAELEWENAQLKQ

4H3414-bA = target: T31, 4H3414-bA; assay: two-hybrid library CCNG1
T31 chain: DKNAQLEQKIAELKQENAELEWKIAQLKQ

4H850-bA = target: T32, 4H850-bA; assay: two-hybrid library CCNG1
T32 chain: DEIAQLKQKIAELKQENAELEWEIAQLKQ

4H3631-bA = target: T33, 4H3631-bA; assay: two-hybrid library CCNG1
T33 chain: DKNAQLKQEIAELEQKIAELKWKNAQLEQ

interaction score (P8SH): 0.809
interaction score (P5SH): -0.706
interaction score (P6SH [1]): 1.84
interaction score (P7SH): -0.619
interaction score (P6SH [2]): 0.801
B1: P5SH (peptide)
chain: DENEKLEEKIWELKRKNEELKREIKELEE

interaction score (Core_NNNN-es_KKKK): 1.53
B2: Core_NNNN-es_EEEE (peptide)
chain: DENAALEAENAALEAENAALEAENAALEG

interaction score (4H584-bA): -1.36
interaction score (4H1338-bA): 0.202
interaction score (4H1710-bA): 2.36
interaction score (4H1804-bA): -0.0181
interaction score (4H3638-bA): -0.958
interaction score (4H3172-bA): 0.388
interaction score (4H619-bA): -1.01
interaction score (4H1359-bA): -0.0139
interaction score (4H3817-bA): 1.18
interaction score (4H1899-bA): 1.1
interaction score (4H1985-bA): 1.8
interaction score (4H906-bA): -0.403
interaction score (4H3129-bA): -1.85
interaction score (4H3628-bA): -0.374
interaction score (4H570-bA): 0.341
interaction score (4H1629-bA): -0.826
interaction score (4H1449-bA): 0.729
interaction score (4H1373-bA): -0.665
interaction score (4H1544-bA): 0.517
interaction score (4H1222-bA): 0.532
interaction score (4H3858-bA): -0.31
interaction score (4H3974-bA): 0.693
interaction score (4H1393-bA): 0.0501
interaction score (4H3613-bA): -0.452
interaction score (4H1348-bA): 0.605
interaction score (4H3414-bA): -0.0927
interaction score (4H850-bA): -0.2
interaction score (4H3631-bA): 0.222
B3: 4H1222-bA (peptide)
chain: DENAQLEQENAELKQEIAELEWKIAQLKQ
